The text below walks through data of US7026443.

Where two headings read alike, the source gives them in different places.

The target in assay [1] is HLA-A*0301 (human). The assay can be described thus: competition with 125I-labeled standard peptide for purified HLA-A*0301, gel filtration.
Assay [2] concerns the target HLA-A*1101 (purified HLA class I molecule) (human). The assay can be described thus: competition with 125I-labelled standard peptide for purified HLA-A*1101, gel filtration.
Another assay addresses HLA-A*3301 (human). The assay is described as follows: competition with 125I-labelled standard peptide for purified HLA, gel filtration.
The next assay has as its target HLA-A*6801 (human). The assay is described as above.
In another assay the target is HLA-A*1101 (human). The description is as above.
Assay [3] deals with HLA-A*0301 (human). The assay is described as above.
In assay [4] the target is HLA-B*5401 (human). The assay is described as follows: competition with 125I-labeled standard probe peptide for purified HLA, gel filtration. Conditions: for relative binding ratio: scale: ratio.
Assay [5] has as its target HLA-B*0702 (human). The assay is described as above. Conditions: for relative binding ratio: scale: ratio.
Assay [6] addresses HLA-B*3501 (human). The description is as above. Conditions: for relative binding ratio: scale: ratio.
Assay [7] addresses HLA-B*5101 (human). The assay is described as above. Conditions: for relative binding ratio: scale: ratio.
The target of assay [8] is HLA-B*5301 (human). The assay is described as above. Conditions: for relative binding ratio: scale: ratio.
Another assay deals with HLA-A*2402 (human). The assay is described as follows: competition with 125I-labelled standard peptide for purified HLA, gel filtration.
Assay [9] has as its target HLA-B*0702 (human).
Assay [10] concerns the target HLA-B*3501 (human).
Assay [11] has as its target HLA-B*5301 (human).
Assay [12] deals with HLA-B*5401 (human). The assay is described as follows: competition with 125I-labeled standard peptide for purified HLA, gel filtration.
Assay [13] addresses HLA-B*0702 (human). The description is as above.
Assay [14] deals with HLA-B*3501 (human). The assay is described as above.
Assay [15] has as its target HLA-B*5101 (human). The description is as above.
For assay [16], the target named is HLA-B*5301 (human). The description is as above.
In assay [17] the target is HLA-A*0201 (purified HLA class I molecule) (human).
[18] abbreviates: remark: other sources report otherwise.

Turning to CMCCKCEARIK (modifications not checked) [HPV18 E7 63-73 peptide …], the relative binding ratio (IC50 of standard peptide / IC50 of test peptide) with HLA-A*0301 (human) [1] is 0.0014; in assay [2], 0.0002.
Regarding TTLEQQYNK (modifications not checked) [HPV16 E6 peptide …], the binding affinity ratio (IC50 of standard peptide / IC50 of test peptide) was determined as 0.066 with HLA-A*3301 (human), 0.3 with HLA-A*6801 (human), 0.29 with HLA-A*1101 (human) and 0.01 in the assay with HLA-A*0301 (human) [3].
For EPDRAHYNIV (modifications not checked), the relative binding ratio with HLA-B*5401 (human) [4] (setting [18]), with HLA-B*0702 (human) [5] (setting [18]), with HLA-B*3501 (human) [6] (setting [18]), in the assay with HLA-B*5101 (human) [7] (setting [18]) and with HLA-B*5301 (human) [8] (setting [18]) was 0.0001 throughout.
Turning to VFEFAFKDLF (modifications not checked) [HPV18 E6 position 44, 10-mer …], the binding affinity ratio (IC50 of standard peptide / IC50 of test peptide) in the assay with HLA-A*2402 (human) is 0.036.
In the case of RPIVQFLRY (modifications not checked) [HPV18 E1 447 peptide …], the figures for the binding affinity ratio (IC50 of standard peptide / IC50 of test peptide) in the assay with HLA-B*0702 (human) [9], in the assay with HLA-B*3501 (human) [10] and with HLA-B*5301 (human) [11] were 0.0033, 0.04 and 0.023, respectively.
For EPPKLRSTAA (modifications not checked) [HPV16 E1 308 …], the binding affinity ratio (IC50 of standard peptide / IC50 of test peptide) was determined as 0.02 with HLA-B*5401 (human) [12]; 0.0002 in the assay with HLA-B*0702 (human) [13]; 0.0003 in the assay with HLA-B*3501 (human) [14]; 0.0002 in the assay with HLA-B*5101 (human) [15]; 0.0002 with HLA-B*5301 (human) [16].
Consider SPLGERLEV (modifications not checked) [HPV18 E1 97 peptide …], for which the binding affinity ratio (IC50 of standard peptide / IC50 of test peptide) came to 0.0011 with HLA-B*5401 (human) [4]; 0.13 in the assay with HLA-B*0702 (human) [5]; 0.0003 with HLA-B*3501 (human) [6]; 0.0002 with HLA-B*5101 (human) [7]; 0.0002 with HLA-B*5301 (human) [8].
For the molecule EPDRAHYNI (modifications not checked), the relative binding ratio stood at 0.0002 with HLA-B*5401 (human) [4]; 0.0001 with HLA-B*0702 (human) [5]; 0.0001 with HLA-B*3501 (human) [6]; 0.0031 in the assay with HLA-B*5101 (human) [7]; 0.0017 with HLA-B*5301 (human) [8].
For TPTLHEYML (modifications not checked) [HPV16 E7 5 …], the relative binding ratio was 0.0002 in the assay with HLA-B*5401 (human) [4] (setting [18]); 0.11 with HLA-B*0702 (human) [5] (setting [18]); 0.0001 with HLA-B*3501 (human) [6] (setting [18]); 0.0001 with HLA-B*5101 (human) [7] (setting [18]); 0.0001 in the assay with HLA-B*5301 (human) [8] (setting [18]).
On to DPQERPRKL (modifications not checked) [HPV16 E6 11 …], for which the binding affinity ratio (IC50 of standard peptide / IC50 of test peptide) in the assay with HLA-B*5401 (human) [12] was 0.0002; in the assay with HLA-B*0702 (human) [13], 0.0001; in the assay with HLA-B*3501 (human) [14], 0.0001; with HLA-B*5101 (human) [15] it was 0.0001; in the assay with HLA-B*5301 (human) [16], 0.0001.
As for ALYWYRTGI (modifications not checked) [HPV45 E1 peptide … (position 311, 9 amino acids)], in [17], the relative binding ratio (IC50 of standard peptide / IC50 of test peptide) was 0.0032.
For CMCCKCEARI (modifications not checked) [HPV18 E7 position 63, 10-mer …], the binding affinity ratio (IC50 of standard peptide / IC50 of test peptide) in the assay with HLA-A*2402 (human) was determined as 0.0001.
Take IVCPICSQK (modifications not checked) [HPV16 E7 peptide …]: the binding affinity ratio (IC50 of standard peptide / IC50 of test peptide) in the assay with HLA-A*3301 (human) (setting [18]) is 0.0016; with HLA-A*6801 (human) (setting [18]), 0.01; with HLA-A*1101 (human) (setting [18]) it was 0.0065; with HLA-A*0301 (human) [3] (setting [18]), 0.0077.
With WPYLHNRLV (modifications not checked), the binding affinity ratio (IC50 of standard peptide / IC50 of test peptide) with HLA-B*5401 (human) [12] is 0.18; in the assay with HLA-B*0702 (human) [13] it was 0.052; with HLA-B*3501 (human) [14], 0.0003; with HLA-B*5101 (human) [15] it was 0.11; in the assay with HLA-B*5301 (human) [16] it was 0.0002.
Take WPYLHNRLVV (modifications not checked): the binding affinity ratio (IC50 of standard peptide / IC50 of test peptide) with HLA-B*5401 (human) [12] was determined as 0.076; with HLA-B*0702 (human) [13] it was 0.095; with HLA-B*3501 (human) [14], 0.0012; with HLA-B*5101 (human) [15], 0.074; in the assay with HLA-B*5301 (human) [16] it was 0.0002.
On to RARQERLQR (modifications not checked) [HPV18 E6 144-152 peptide …], for which the relative binding ratio (IC50 of standard peptide / IC50 of test peptide) in assay [2] stood at 0.0002.
Take ALDGNPISI (modifications not checked) [HPV45 E1 peptide … (position 532, 9 amino acids)]: the relative binding ratio (IC50 of standard peptide / IC50 of test peptide) in assay [17] came out at 0.021.
As to PLNPAEKLR (modifications not checked) [HPV18 E6 111-119 peptide …], the relative binding ratio (IC50 of standard peptide / IC50 of test peptide) in assay [2] was 0.0005.
The same measure, in the same setting: the result for RFEDPTRRPY (modifications not checked) [HPV18 E6 3-12 peptide …] reads 0.0002.
For NPYAVCDKCL (modifications not checked) [HPV16 E6 65 …], the relative binding ratio in the assay with HLA-B*5401 (human) [4], in the assay with HLA-B*0702 (human) [5], with HLA-B*3501 (human) [6], with HLA-B*5101 (human) [7] and with HLA-B*5301 (human) [8] was 0.0001 each time.
On to VMFLRYQGV (modifications not checked) [HPV16 E1 peptide … (position 443, 9 amino acids)], for which, in assay [17], the relative binding ratio (IC50 of standard peptide / IC50 of test peptide) (ratio to standard peptide) is 0.014.
For VYCKTVLEL (modifications not checked) [HPV18 E6 position 33, 9-mer …], the binding affinity ratio (IC50 of standard peptide / IC50 of test peptide) with HLA-A*2402 (human) is 0.022.
With YLVSPLSDI (modifications not checked) [HPV16 E1 peptide … (position 90, 9 amino acids)], the relative binding ratio (IC50 of standard peptide / IC50 of test peptide) (ratio to standard peptide) in assay [17] was found to be 0.02.
Regarding PYKLPDLCTEL (modifications not checked) [HPV18 E6 position 11, 11-mer …], the binding affinity ratio (IC50 of standard peptide / IC50 of test peptide) with HLA-A*2402 (human) was determined as 0.0064.
As to SIPHAACHK (modifications not checked) [HPV18 E6 59-67 peptide …], the relative binding ratio (IC50 of standard peptide / IC50 of test peptide) in assay [2] was 0.12.
RPIVQFLRY (modifications not checked) [HPV45 E1 433 peptide …]: the binding affinity ratio (IC50 of standard peptide / IC50 of test peptide) (ratio relative to standard peptide) with HLA-B*0702 (human) [9] was found to be 0.0033; with HLA-B*3501 (human) [10], 0.04; with HLA-B*5301 (human) [11], 0.023.
